In US20040248211A1, “ICAM-related protein” (priority 1992, published 2004):

Key:
[1] = test system: PBMC and CD4+ T-lymphocytes; assay: Costimulation of anti-CD3 induced lymphocyte proliferation; assay type: cell-based, human; settings: anti-CD3 G19 0.001 μg/well; antibody 10 μg/well; 3 days
Procedure: Because anti-ICAM-R antibodies with anti-CD3 antibodies costimulated early PBMC activation events, anti-ICAM-R antibodies were tested for the ability to costimulate lymphocyte proliferation induced by immobilized anti-CD3 antibody. In addition, to determine whether anti-ICAM-R antibodies costimulate T-lymphocytes in the absence of accessory cells, anti-ICAM-R antibodies were tested for their ability to costimulate proliferation of pure CD4^+ T-lymphocytes, isolated using negative'selection. To isolate CD4^+ cells PBMC were suspended in tissue culture medium, added to 75 ml tissue culture flasks (Corning) and incubated for 1 hour at 37° C., 5% CO2. Plastic nonadherent cells were then removed from the flask by gently rinsing once with PBS. The nonadherent cell fraction was suspended (10^7 cells/ml) in an antibody cocktail containing 1 μg/ml anti-CD8 antibody (Pharmingen, San Diego, Calif.), 1 μg/ml anti-CD19 (Becton Dickinson), 1 μg/ml anti-CD11b (Becton Dickinson) in 10% FBS-PBS (coating medium), and incubated for 1 hour at 4° C. Unbound antibody was removed by washing twice in coating medium. […] Lymphocyte proliferation was measured by ^3H-thymidine incorporation by the PMBC or CD4^+ cells. […]

[2] = test system: PBMC; assay: PBMC proliferation with or without rIL-2; assay type: cell-based, human; settings: immobilized antibody 10 μg/well; with or without rIL-2 10 units/ml; 3 days
Procedure: Ten μg of ICAM-R monoclonal antibodies ICR-1.1 or ICR-4.2 (or control IgG1 and IgG2) antibodies) in PBS were added per well of 96-well flat bottom tissue culture plates and the plates were incubated for 3-4 hours at 37° C. in a 5% CO2 incubator. After incubation, each well was rinsed 3 times with PBS and freshly obtained PBL were added to a final concentration of 2×10^5 cells/well in a volume of 200 μl. Ten units/ml human recombinant IL-2 (Genzyme, Boston, Mass.) was then added to selected wells. The plates were incubated for a total of 3 days at 37° C. in a 5% CO2 incubator. ^3H-thymidine incorporation by the PMBC was determined as described earlier in this example. […] Positive controls for lymphocyte proliferation included immobilized anti-CD3 and anti-LFA-1 (60.3) monclonal antibodies.

[3] = biological target: T1, ICAM-R on PBL (Homo sapiens, UniProt P32942); assay: FACS-based competition assay; assay type: binding; settings: 5 μg antibody; equivalent on SKW3
T1 construct: endogenous in cells; host or cells: human peripheral blood leukocytes
T1 sequence (P32942 30-547): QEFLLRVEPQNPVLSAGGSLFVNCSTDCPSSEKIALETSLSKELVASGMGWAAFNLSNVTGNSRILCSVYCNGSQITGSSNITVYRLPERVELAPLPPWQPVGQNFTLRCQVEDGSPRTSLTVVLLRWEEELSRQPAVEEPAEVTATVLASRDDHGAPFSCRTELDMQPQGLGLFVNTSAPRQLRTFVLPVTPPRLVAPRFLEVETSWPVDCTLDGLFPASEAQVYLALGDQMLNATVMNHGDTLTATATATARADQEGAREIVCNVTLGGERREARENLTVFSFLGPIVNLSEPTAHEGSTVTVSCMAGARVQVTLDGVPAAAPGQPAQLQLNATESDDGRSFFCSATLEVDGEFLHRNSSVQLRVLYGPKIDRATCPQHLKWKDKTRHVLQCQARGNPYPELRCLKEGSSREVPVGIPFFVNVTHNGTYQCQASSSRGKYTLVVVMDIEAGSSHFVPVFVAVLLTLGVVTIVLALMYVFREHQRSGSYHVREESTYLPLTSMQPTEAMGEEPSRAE
Procedure: In the assays, human peripheral blood leukocytes (PBL) obtained by Ficoll Hypaque centrifugation of normal peripheral blood were washed twice in ice cold FACS buffer (PBS containing 0.1% sodium azide and 1% bovine serum albumin) and 2×10^5 cells were incubated in triplicate polypropylene tubes with 5 μg of each of the following antibodies ICR-1.1, ICR-4.2, and control isotype IgG (Sigma). All tubes containing the first stage antibodies were then incubated for 30 minutes at 4° C. and washed twice in cold FACS buffer. To each triplicate tube, 5 μg of each of the following second stage antibodies were added: biotinylated-ICR-1.1, biotinylated-ICR-4.2, biotinylated-anti-rat CD4 (negative control). All second stage antibodies were bibtinylated according to standard procedures as described in Example 12 and all tubes were then incubated for an additional 30 minutes at 4° C. before washing twice in FACS buffer. […] Finally, all tubes were washed twice in FACS buffer and analyzed by flow cytometry (FACScan, Becton-Dickinson).
SKW3 cells were labelled with either 1 μg of antibody ICR-1.1 or ICR-4.2, washed in FACS buffer and incubated with 1 μg biotinylated-ICR-1.1 or biotinylated ICR-4.2. All tubes were then washed in FACS buffer, incubated with Strepavidin-phycoerythrin for an additional 30 minutes at 4° C. and analyzed by FACScan.

[4] = test system: PBMC; assay: Anti-CD3 stimulated PBMC aggregation; assay type: cell-based, human; settings: immobilized antibody

B1: ICR-1.1: anti-ICAM-R monoclonal antibody, IgG2a, domain 1, ATCC HB 11053 (antibody, V domains shown)
VH: QVQLQQSGAELAKPGASVKMSCKASGYTFTVYWMHWVKQRPGQGLEWIGYINPNTDYTEYNQRFQDKATLTADKSSSTAYMQLSSLTSEDSAVYYCARWGGNSYGLDYWGQGTSVTVSS
VL: QIVLTQSPALMSASPGEKVTMTCSASSSVSYIYWYQQKPRSSPKPWIYLTSNLASGVPARFSGSGSGASYSLTISIMEAEDAATYYCQQWKSIPLTFGAGTKLELK
- proliferative response to immobilized anti-CD3 [1]: increased the PBMC and purified CD4^+ cell response to anti-CD3
- PBMC proliferation (3H-thymidine) [2]: did not induce PMBC proliferation even in the presence of rIL2
- blocking of biotinylated-ICR-1.1 binding [3]: did block binding of biotinylated-ICR-1.1
- blocking of biotinylated-ICR-4.2 binding [3]: did not block binding of monoclonal antibody ICR-4.2
- inhibition of anti-CD3 stimulated aggregation [4]: ~100%
